Data on one molecule can be found in patent US20100003690A1 (published 2010).

The experiment addresses hERG 1b (human, UniProt Q12809 377-1159). As to the kind of experiment: cell-based or functional assay.

B1: hERG 1a (other, human, UniProt Q12809 1-1159, looked up)
chain: MPVRRGHVAPQNTFLDTIIRKFEGQSRKFIIANARVENCAVIYCNDGFCELCGYSRAEVMQRPCTCDFLHGPRTQRRAAAQIAQALLGAEERKVEIAFYRKDGSCFLCLVDVVPVKNEDGAVIMFILNFEVVMEKDMVGSPAHDTNHRGPPTSWLAPGRAKTFRLKLPALLALTARESSVRSGGAGGAGAPGAVVVDVDLTPAAPSSESLALDEVTAMDNHVAGLGPAEERRALVGPGSPPRSAPGQLPSPRAHSLNPDASGSSCSLARTRSRESCASVRRASSADDIEAMRAGVLPPPPRHASTGAMHPLRSGLLNSTSDSDLVRYRTISKIPQITLNFVDLKGDPFLASPTSDREIIAPKIKERTHNVTEKVTQVLSLGADVLPEYKLQAPRIHRWTILHYSPFKAVWDWLILLLVIYTAVFTPYSAAFLLKETEEGPPATECGYACQPLAVVDLIVDIMFIVDILINFRTTYVNANEEVVSHPGRIAVHYFKGWFLIDMVAAIPFDLLIFGSGSEELIGLLKTARLLRLVRVARKLDRYSEYGAAVLFLLMCTFALIAHWLACIWYAIGNMEQPHMDSRIGWLHNLGDQIGKPYNSSGLGGPSIKDKYVTALYFTFSSLTSVGFGNVSPNTNSEKIFSICVMLIGSLMYASIFGNVSAIIQRLYSGTARYHTQMLRVREFIRFHQIPNPLRQRLEEYFQHAWSYTNGIDMNAVLKGFPECLQADICLHLNRSLLQHCKPFRGATKGCLRALAMKFKTTHAPPGDTLVHAGDLLTALYFISRGSIEILRGDVVVAILGKNDIFGEPLNLYARPGKSNGDVRALTYCDLHKIHRDDLLEVLDMYPEFSDHFWSSLEITFNLRDTNMIPGSPGSTELEGGFSRQRKRKLSFRRRTDKDTEQPGEVSALGPGRAGAGPSSRGRPGGPWGESPSSGPSSPESSEDEGPGRSSSPLRLVPFSSPRPPGEPPGGEPLMEDCEKSSDTCNPLSGAFSGVSNIFSFWGDSRGRQYQELPRCPAPTPSLLNIPLSSPGRRPRGDVESRLDALQRQLNRLETRLSADMATVLQLLQRQMTLVPPAYSAVTTPGPGPTSTSPLLPVSPLPTLTLDSLSQVSQFMACEELPPGAPELPQEGPTRRLSLPGQLGALTSQPLHRHGSDPGS
Turning to B1, the “hERG 1b maturation by Western blot analysis” value is roughly 3 fold.
